Experimental data taken from article PMC9352680, “A comprehensive thermodynamic model for RNA binding by the Saccharomyces cerevisiae Pumilio protein PUF4”.
Residue numbers refer to the chain shown, from its start. Numbers in names are those of the source.

T1: PUF4 RNA-binding domain (Saccharomyces cerevisiae, UniProt P25339 537-888)
T1 sequence: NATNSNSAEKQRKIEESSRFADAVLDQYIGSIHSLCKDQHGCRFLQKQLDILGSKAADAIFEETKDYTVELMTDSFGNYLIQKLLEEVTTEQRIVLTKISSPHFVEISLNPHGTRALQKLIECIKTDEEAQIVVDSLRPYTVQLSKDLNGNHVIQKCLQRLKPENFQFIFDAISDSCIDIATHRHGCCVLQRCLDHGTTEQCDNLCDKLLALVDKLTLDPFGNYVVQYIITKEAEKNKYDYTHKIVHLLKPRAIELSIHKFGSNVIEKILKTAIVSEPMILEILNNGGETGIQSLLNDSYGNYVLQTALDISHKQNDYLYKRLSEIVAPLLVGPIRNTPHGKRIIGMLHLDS

B1: Ic_S2_P4E.1_K4.1_C4.1_H4.1_A4.1_[T5C]_[A6G]_[T7C]_F4.1_[A9G]_T4.1 (ssRNA)
RNA: UUUGAUUAAUAUGAUAUCGUUCUUUCUUGUACGCUGUUCUUUCUCGAUAUCAUAUUAAUCUUU
B2: Ic_S2_P4E.1_K4.1_C4.1_H4.1_A4.1_[T5C]_[A6T]_[T7C]_F4.1_[T8C]_[A9T]_T4.1 (ssRNA)
RNA: B1 RNA with G33U, U35C, G36U
B3: Ic_S2_P4E.1_K4.1_C4.1_H4.1_A4.1_[T5C]_[A6C]_[T7C]_F4.1_[T8A]_[A9T]_T4.1 (ssRNA)
RNA: B1 RNA with G33C, U35A, G36U
B4: Ic_S2_P4E.1_K4.1_C4.1_H4.1_A4.1_[T5C]_[A6T]_[T7G]_F4.1_[T8C]_[A9T]_T4.1 (ssRNA)
RNA: B1 RNA with G33U, C34G, U35C, G36U
B5: Ic_S2_P4E.1_K4.1_C4.1_H4.1_A4.1_[T5C]_[A6T]_[T7C]_F4.1_[T8G]_[A9C]_T4.1 (ssRNA)
RNA: B1 RNA with G33U, U35G, G36C
B6: Ic_S2_P4E.1_K4.1_C4.1_H4.1_A4.1_[T5C]_[A6C]_[T7A]_F4.1_[A9G]_T4.1 (ssRNA)
RNA: B1 RNA with G33C, C34A
B7: Ic_S2_P4E.1_K4.1_C4.1_H4.1_A4.1_[T5C]_[A6C]_F4.1_[T8G]_[A9T]_T4.1 (ssRNA)
RNA: B1 RNA with G33C, C34U, U35G, G36U
B8: Ic_S2_P4E.1_K4.1_C4.1_H4.1_A4.1_[T5C]_[A6T]_[T7C]_F4.1_[T8C]_T4.1 (ssRNA)
RNA: B1 RNA with G33U, U35C, G36A
B9: Ic_S2_P4E.1_K4.1_C4.1_H4.1_A4.1_[T5C]_[A6C]_[T7C]_F4.1_T4.1 (ssRNA)
RNA: B1 RNA with G33C, G36A
B10: Ic_S2_P4E.1_K4.1_C4.1_H4.1_A4.1_[T5C]_[A6G]_F4.1_[A9G]_T4.1 (ssRNA)
RNA: B1 RNA with C34U
B11: Ic_S2_P4E.1_K4.1_C4.1_H4.1_A4.1_[T5C]_[A6T]_[T7A]_F4.1_[T8G]_[A9T]_T4.1 (ssRNA)
RNA: B1 RNA with G33U, C34A, U35G, G36U
B12: Ic_S2_P4E.1_K4.1_C4.1_H4.1_A4.1_[T5C]_[A6G]_[T7A]_F4.1_[T8C]_T4.1 (ssRNA)
RNA: B1 RNA with C34A, U35C, G36A
B13: Ic_S2_P4E.1_K4.1_C4.1_H4.1_A4.1_[T5C]_[A6T]_[T7C]_F4.1_[T8A]_[A9T]_T4.1 (ssRNA)
RNA: B1 RNA with G33U, U35A, G36U
B14: Ic_S2_P4E.1_K4.1_C4.1_H4.1_A4.1_[T5C]_[A6C]_[T7G]_F4.1_[T8C]_[A9C]_T4.1 (ssRNA)
RNA: B1 RNA with G33C, C34G, U35C, G36C
B15: Ic_S2_P4E.1_K4.1_C4.1_H4.1_A4.1_[T5C]_[A6C]_F4.1_[A9T]_T4.1 (ssRNA)
RNA: B1 RNA with G33C, C34U, G36U
B16: Ic_S2_P4E.1_K4.1_C4.1_H4.1_A4.1_[T5C]_[A6C]_[T7C]_F4.1_[A9C]_T4.1 (ssRNA)
RNA: B1 RNA with G33C, G36C
B17: Ic_S2_P4E.1_K4.1_C4.1_H4.1_A4.1_[T5C]_[A6C]_[T7A]_F4.1_[T8A]_[A9T]_T4.1 (ssRNA)
RNA: B1 RNA with G33C, C34A, U35A, G36U
B18: Ic_S2_P4E.1_K4.1_C4.1_H4.1_A4.1_[T5C]_[A6G]_F4.1_[T8A]_T4.1 (ssRNA)
RNA: B1 RNA with C34U, U35A, G36A
B19: Ic_S2_P4E.1_K4.1_C4.1_H4.1_A4.1_[T5C]_[A6C]_F4.1_[T8A]_[A9T]_T4.1 (ssRNA)
RNA: B1 RNA with G33C, C34U, U35A, G36U
B20: Ic_S2_P4E.1_K4.1_C4.1_H4.1_A4.1_[T5C]_[A6C]_[T7C]_F4.1_[T8C]_[A9G]_T4.1 (ssRNA)
RNA: B1 RNA with G33C, U35C
B21: Ic_S2_P4E.1_K4.1_C4.1_H4.1_A4.1_[T5C]_[A6G]_[T7C]_F4.1_[A9C]_T4.1 (ssRNA)
RNA: B1 RNA with G36C
B22: Ic_S2_P4E.1_K4.1_C4.1_H4.1_A4.1_[T5C]_[A6C]_[T7A]_F4.1_[T8G]_[A9T]_T4.1 (ssRNA)
RNA: B1 RNA with G33C, C34A, U35G, G36U
B23: Ic_S2_P4E.1_K4.1_C4.1_H4.1_A4.1_[T5C]_[A6C]_[T7C]_F4.1_[T8C]_[A9T]_T4.1 (ssRNA)
RNA: B1 RNA with G33C, U35C, G36U
B24: Ic_S2_P4E.1_K4.1_C4.1_H4.1_A4.1_[T5C]_[A6C]_F4.1_[T8C]_[A9C]_T4.1 (ssRNA)
RNA: B1 RNA with G33C, C34U, U35C, G36C
B25: Ic_S2_P4E.1_K4.1_C4.1_H4.1_A4.1_[T5C]_[A6C]_F4.1_[T8C]_[A9T]_T4.1 (ssRNA)
RNA: B1 RNA with G33C, C34U, U35C, G36U

These binders were tested against T1, PUF4 RNA-binding domain (assay: Mg; RNA-MaP; 20 mM Na-HEPES pH 7.4, 30 mM KOAc, 0.75 mM MgCl2, 0.1% Tween-20, 5% glycerol, 0.1 mg/mL BSA, 2 mM DTT; 25 C; 0.0125-409.6 nM protein). Details: tags: N-His6-TEV cleaved; C-SNAP kept, Cy3B-labelled; label: tethered on chip by stalled RNA polymerase.

Binder | Kd
UCUCUUUGUUUGUAUCUCUU (ssRNA) [Ib_S1_P3E.1_K3.1_C3.1_H3.1_[A4T]_A3.1_[A6G]_F3.1_T3.1] | 133 nM
UCUCUUUGUAUAUUUUCUCUU (ssRNA) [Ia_S1_P4E.1_K4.1_C4.1_H4.1_A4.1_F4.1_[A9T]_T4.1] | 4.51 nM
UCUCUUUGUCUUUAUCUCUU (ssRNA) [Ib_S1_P3E.1_K3.1_C3.1_H3.1_[A4C]_A3.1_[A6T]_F3.1_T3.1] | > 2300 nM
UCUCUUUGUUUCUAUCUCUU (ssRNA) [Ib_S1_P3E.1_K3.1_C3.1_H3.1_[A4T]_A3.1_[A6C]_F3.1_T3.1] | > 2300 nM
B1 | 31.1 nM
B2 | 103 nM
B3 | 81.4 nM
B4 | 157 nM
B5 | 879 nM
B6 | 3.21 nM
B7 | 28.4 nM
B8 | 213 nM
B9 | 1.46 nM
B10 | 28.9 nM
B11 | 538 nM
B12 | 407 nM
B13 | 68.6 nM
B14 | 736 nM
B15 | 6.99 nM
B16 | 24.5 nM
B17 | 20.6 nM
B18 | 125 nM
B19 | 9.29 nM
B20 | 595 nM
B21 | 28.3 nM
B22 | 171 nM
B23 | 96.8 nM
B24 | 79.4 nM
B25 | 29.7 nM
